Results from US20250084142A1 (INTARCIA THERAPEUTICS, published 2025).
Starred links: 1 amine or outer side, 2 acyl side, 3 side chain; linkers in the order of their positions; H or OH if unused. Non-standard residues stand in square brackets, D forms with d. Groups on a side chain read outwards from the residue. No end group written: not given here. *: point of attachment. C20 diacid = O=C(O)CCCCCCCCCCCCCCCCCCC(=O)*; Phe(4-F) = N[C@@H](Cc1ccc(F)cc1)C(=O)O; γGlu = O=C(O)[C@H](CCC(=O)[*:2])N[*:1]; NMeY = CN[C@@H](Cc1ccc(O)cc1)C(=O)O; hPhe = N[C@@H](CCc1ccccc1)C(=O)O

T1: NPY2R
T1 sequence (P49146 1-381, species assumed, looked up): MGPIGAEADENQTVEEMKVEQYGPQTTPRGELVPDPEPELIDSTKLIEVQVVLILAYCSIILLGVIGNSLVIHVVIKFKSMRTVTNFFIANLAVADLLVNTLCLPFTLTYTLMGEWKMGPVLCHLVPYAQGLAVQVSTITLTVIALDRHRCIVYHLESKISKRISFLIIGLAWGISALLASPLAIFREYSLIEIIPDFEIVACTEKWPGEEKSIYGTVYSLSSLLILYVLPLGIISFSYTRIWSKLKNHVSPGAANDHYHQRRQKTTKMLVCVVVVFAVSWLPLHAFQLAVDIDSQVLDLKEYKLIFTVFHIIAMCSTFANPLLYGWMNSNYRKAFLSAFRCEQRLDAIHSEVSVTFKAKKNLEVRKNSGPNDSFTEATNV

T2: NPY5R
T2 sequence (Q15761 1-445, species assumed, looked up): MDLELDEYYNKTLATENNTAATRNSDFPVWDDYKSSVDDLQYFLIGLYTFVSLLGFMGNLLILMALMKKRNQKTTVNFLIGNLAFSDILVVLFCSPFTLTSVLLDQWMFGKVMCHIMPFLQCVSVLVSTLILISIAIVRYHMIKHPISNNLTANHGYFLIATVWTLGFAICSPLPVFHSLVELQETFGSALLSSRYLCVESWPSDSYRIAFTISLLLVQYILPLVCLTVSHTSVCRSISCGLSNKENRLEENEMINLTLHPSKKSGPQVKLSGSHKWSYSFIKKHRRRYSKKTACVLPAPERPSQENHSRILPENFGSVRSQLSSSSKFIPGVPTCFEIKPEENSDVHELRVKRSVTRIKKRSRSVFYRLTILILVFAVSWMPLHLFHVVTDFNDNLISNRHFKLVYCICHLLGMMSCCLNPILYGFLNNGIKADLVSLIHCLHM

B1: Compound A64 (peptide)
peptide: PKPEAPK([γGlu-γGlu-C20 diacid])KDASPEELNRYYADARHYLNWLTRQRF-NH2
modifications: N-terminus assumed
SMILES: CC(C)C[C@H](NC(=O)[C@H](Cc1ccc(O)cc1)NC(=O)[C@H](Cc1c[nH]cn1)NC(=O)[C@H](CCCNC(=N)N)NC(=O)[C@H](C)NC(=O)[C@H](CC(=O)O)NC(=O)[C@H](C)NC(=O)[C@H](Cc1ccc(O)cc1)NC(=O)[C@H](Cc1ccc(O)cc1)NC(=O)[C@H](CCCNC(=N)N)NC(=O)[C@H](CC(N)=O)NC(=O)[C@H](CC(C)C)NC(=O)[C@H](CCC(=O)O)NC(=O)[C@H](CCC(=O)O)NC(=O)[C@@H]1CCCN1C(=O)[C@H](CO)NC(=O)[C@H](C)NC(=O)[C@H](CC(=O)O)NC(=O)[C@H](CCCCN)NC(=O)[C@H](CCCCNC(=O)CC[C@H](NC(=O)CC[C@H](NC(=O)CCCCCCCCCCCCCCCCCCC(=O)O)C(=O)O)C(=O)O)NC(=O)[C@@H]1CCCN1C(=O)[C@H](C)NC(=O)[C@H](CCC(=O)O)NC(=O)[C@@H]1CCCN1C(=O)[C@H](CCCCN)NC(=O)[C@@H]1CCCN1)C(=O)N[C@@H](CC(N)=O)C(=O)N[C@@H](Cc1c[nH]c2ccccc12)C(=O)N[C@@H](CC(C)C)C(=O)N[C@H](C(=O)N[C@@H](CCCNC(=N)N)C(=O)N[C@@H](CCC(N)=O)C(=O)N[C@@H](CCCNC(=N)N)C(=O)N[C@@H](Cc1ccccc1)C(N)=O)[C@@H](C)O
B2: Compound A67 (peptide)
peptide: PKPEAPGK([γGlu-γGlu-C20 diacid])DASPEKWNRYYKDLRHYLNWLTRQRF-NH2
B3: Compound A69 (peptide)
peptide: PKPEAPGK([γGlu-γGlu-C20 diacid])DASPEEWNRYKKDLRHYLNWLTRQRF-NH2
B4: Compound A70 (peptide)
peptide: PKPEKPGKDASPK([γGlu-γGlu-C20 diacid])EWNRYYKDLRHYLNWLTRQRF-NH2
modifications: N-terminus assumed
SMILES: CC(C)C[C@H](NC(=O)[C@H](CC(=O)O)NC(=O)[C@H](CCCCN)NC(=O)[C@H](Cc1ccc(O)cc1)NC(=O)[C@H](Cc1ccc(O)cc1)NC(=O)[C@H](CCCNC(=N)N)NC(=O)[C@H](CC(N)=O)NC(=O)[C@H](Cc1c[nH]c2ccccc12)NC(=O)[C@H](CCC(=O)O)NC(=O)[C@H](CCCCNC(=O)CC[C@H](NC(=O)CC[C@H](NC(=O)CCCCCCCCCCCCCCCCCCC(=O)O)C(=O)O)C(=O)O)NC(=O)[C@@H]1CCCN1C(=O)[C@H](CO)NC(=O)[C@H](C)NC(=O)[C@H](CC(=O)O)NC(=O)[C@H](CCCCN)NC(=O)CNC(=O)[C@@H]1CCCN1C(=O)[C@H](CCCCN)NC(=O)[C@H](CCC(=O)O)NC(=O)[C@@H]1CCCN1C(=O)[C@H](CCCCN)NC(=O)[C@@H]1CCCN1)C(=O)N[C@@H](CCCNC(=N)N)C(=O)N[C@@H](Cc1c[nH]cn1)C(=O)N[C@@H](Cc1ccc(O)cc1)C(=O)N[C@@H](CC(C)C)C(=O)N[C@@H](CC(N)=O)C(=O)N[C@@H](Cc1c[nH]c2ccccc12)C(=O)N[C@@H](CC(C)C)C(=O)N[C@H](C(=O)N[C@@H](CCCNC(=N)N)C(=O)N[C@@H](CCC(N)=O)C(=O)N[C@@H](CCCNC(=N)N)C(=O)N[C@@H](Cc1ccccc1)C(N)=O)[C@@H](C)O
B5: Compound A71 (peptide)
peptide: PKPEK([γGlu-γGlu-C20 diacid])PGKDASPKEWNRYYKDLRHYLNWLTRQRF-NH2
modifications: N-terminus assumed
SMILES: CC(C)C[C@H](NC(=O)[C@H](CC(=O)O)NC(=O)[C@H](CCCCN)NC(=O)[C@H](Cc1ccc(O)cc1)NC(=O)[C@H](Cc1ccc(O)cc1)NC(=O)[C@H](CCCNC(=N)N)NC(=O)[C@H](CC(N)=O)NC(=O)[C@H](Cc1c[nH]c2ccccc12)NC(=O)[C@H](CCC(=O)O)NC(=O)[C@H](CCCCN)NC(=O)[C@@H]1CCCN1C(=O)[C@H](CO)NC(=O)[C@H](C)NC(=O)[C@H](CC(=O)O)NC(=O)[C@H](CCCCN)NC(=O)CNC(=O)[C@@H]1CCCN1C(=O)[C@H](CCCCNC(=O)CC[C@H](NC(=O)CC[C@H](NC(=O)CCCCCCCCCCCCCCCCCCC(=O)O)C(=O)O)C(=O)O)NC(=O)[C@H](CCC(=O)O)NC(=O)[C@@H]1CCCN1C(=O)[C@H](CCCCN)NC(=O)[C@@H]1CCCN1)C(=O)N[C@@H](CCCNC(=N)N)C(=O)N[C@@H](Cc1c[nH]cn1)C(=O)N[C@@H](Cc1ccc(O)cc1)C(=O)N[C@@H](CC(C)C)C(=O)N[C@@H](CC(N)=O)C(=O)N[C@@H](Cc1c[nH]c2ccccc12)C(=O)N[C@@H](CC(C)C)C(=O)N[C@H](C(=O)N[C@@H](CCCNC(=N)N)C(=O)N[C@@H](CCC(N)=O)C(=O)N[C@@H](CCCNC(=N)N)C(=O)N[C@@H](Cc1ccccc1)C(N)=O)[C@@H](C)O
B6: Compound A68 (peptide)
peptide: PKPEAPGK([γGlu-γGlu-C20 diacid])DASPEEWNRKYKDLRHYLNWLTRQRF-NH2
B7: Compound A61 (peptide)
peptide: PKPEAPGK([γGlu-γGlu-C20 diacid])DASPEEWNRYYADLRHYLNWLTRQR[hPhe]-NH2
B8: Compound A73 (peptide)
peptide: PKPEAPGK([γGlu-γGlu-C20 diacid])DASPKEWNRYYKDLRHYLNWLTRQRF-NH2
B9: Compound A4 (peptide)
peptide: K([γGlu-γGlu-C20 diacid])PKPEAPGKDASPEEWNRYYADARHYLNWLTRQR[NMeY]-NH2
modifications: N-terminus assumed
SMILES: CC(C)C[C@H](NC(=O)[C@H](Cc1ccc(O)cc1)NC(=O)[C@H](Cc1c[nH]cn1)NC(=O)[C@H](CCCNC(=N)N)NC(=O)[C@H](C)NC(=O)[C@H](CC(=O)O)NC(=O)[C@H](C)NC(=O)[C@H](Cc1ccc(O)cc1)NC(=O)[C@H](Cc1ccc(O)cc1)NC(=O)[C@H](CCCNC(=N)N)NC(=O)[C@H](CC(N)=O)NC(=O)[C@H](Cc1c[nH]c2ccccc12)NC(=O)[C@H](CCC(=O)O)NC(=O)[C@H](CCC(=O)O)NC(=O)[C@@H]1CCCN1C(=O)[C@H](CO)NC(=O)[C@H](C)NC(=O)[C@H](CC(=O)O)NC(=O)[C@H](CCCCN)NC(=O)CNC(=O)[C@@H]1CCCN1C(=O)[C@H](C)NC(=O)[C@H](CCC(=O)O)NC(=O)[C@@H]1CCCN1C(=O)[C@H](CCCCN)NC(=O)[C@@H]1CCCN1C(=O)[C@@H](N)CCCCNC(=O)CC[C@H](NC(=O)CC[C@H](NC(=O)CCCCCCCCCCCCCCCCCCC(=O)O)C(=O)O)C(=O)O)C(=O)N[C@@H](CC(N)=O)C(=O)N[C@@H](Cc1c[nH]c2ccccc12)C(=O)N[C@@H](CC(C)C)C(=O)N[C@H](C(=O)N[C@@H](CCCNC(=N)N)C(=O)N[C@@H](CCC(N)=O)C(=O)N[C@@H](CCCNC(=N)N)C(=O)N(C)[C@@H](Cc1ccc(O)cc1)C(N)=O)[C@@H](C)O
B10: Compound A63 (peptide)
peptide: PKPEAPK([γGlu-γGlu-C20 diacid])KDASPEELNRYYADARHYLNWLTRQR[NMeY]-NH2
modifications: N-terminus assumed
SMILES: CC(C)C[C@H](NC(=O)[C@H](Cc1ccc(O)cc1)NC(=O)[C@H](Cc1c[nH]cn1)NC(=O)[C@H](CCCNC(=N)N)NC(=O)[C@H](C)NC(=O)[C@H](CC(=O)O)NC(=O)[C@H](C)NC(=O)[C@H](Cc1ccc(O)cc1)NC(=O)[C@H](Cc1ccc(O)cc1)NC(=O)[C@H](CCCNC(=N)N)NC(=O)[C@H](CC(N)=O)NC(=O)[C@H](CC(C)C)NC(=O)[C@H](CCC(=O)O)NC(=O)[C@H](CCC(=O)O)NC(=O)[C@@H]1CCCN1C(=O)[C@H](CO)NC(=O)[C@H](C)NC(=O)[C@H](CC(=O)O)NC(=O)[C@H](CCCCN)NC(=O)[C@H](CCCCNC(=O)CC[C@H](NC(=O)CC[C@H](NC(=O)CCCCCCCCCCCCCCCCCCC(=O)O)C(=O)O)C(=O)O)NC(=O)[C@@H]1CCCN1C(=O)[C@H](C)NC(=O)[C@H](CCC(=O)O)NC(=O)[C@@H]1CCCN1C(=O)[C@H](CCCCN)NC(=O)[C@@H]1CCCN1)C(=O)N[C@@H](CC(N)=O)C(=O)N[C@@H](Cc1c[nH]c2ccccc12)C(=O)N[C@@H](CC(C)C)C(=O)N[C@H](C(=O)N[C@@H](CCCNC(=N)N)C(=O)N[C@@H](CCC(N)=O)C(=O)N[C@@H](CCCNC(=N)N)C(=O)N(C)[C@@H](Cc1ccc(O)cc1)C(N)=O)[C@@H](C)O
B11: Compound A66 (peptide)
peptide: PKPEAPGK([γGlu-γGlu-C20 diacid])DKSPEEWNRYYKDLRHYLNWLTRQRF-NH2
B12: Compound A60 (peptide)
peptide: PKPEAPGK([γGlu-γGlu-C20 diacid])DASPEEWNRYYADLRHYLNWLTRQR[Phe(4-F)]-NH2

Each binder was assayed against T1, NPY2R (assay: cell-based or functional assay).

Point of comparison: B4, “NPY2R pEC50” value 10.4 -Log(EC50, M). Against it:
- B1 — lower, 8.6 -Log(EC50, M)
- B2 — lower, 10.3 -Log(EC50, M)
- B3 — lower, 10 -Log(EC50, M)
- B5 — higher, 10.7 -Log(EC50, M)
- B6 — lower, 9.7 -Log(EC50, M)
- B7 — lower, 10 -Log(EC50, M)
- B8 — lower, 10.3 -Log(EC50, M)
- B9 — lower, 8.7 -Log(EC50, M)
- B10 — lower, 7.5 -Log(EC50, M)
- B11 — lower, 10.3 -Log(EC50, M)
- B12 — lower, 10.3 -Log(EC50, M)

What follows are binders tested against T2, NPY5R (assay: cell-based or functional assay).

Point of comparison: B12, “NPY5R pEC50” value 8.6 -Log(EC50, M). Against it:
- B1 — lower, 7.9 -Log(EC50, M)
- B2 — lower, 8.5 -Log(EC50, M)
- B3 — lower, 8.3 -Log(EC50, M)
- B4 — higher, 8.7 -Log(EC50, M)
- B5 — higher, 8.8 -Log(EC50, M)
- B6 — lower, 7.9 -Log(EC50, M)
- B7 — lower, 8.3 -Log(EC50, M)
- B8 — the same, 8.6 -Log(EC50, M)
- B9 — lower, 7.3 -Log(EC50, M)
- B10 — lower, 6 -Log(EC50, M)
- B11 — lower, 8.3 -Log(EC50, M)
